From patent US10197572B2, “Method and kit for detection of deltanoid-resistant leukemia cells and antibody for use therein” (WROCLAWSKIE CENTRUM BADAN EIT+ SP. Z O.O., priority 2014, dated 2019)

Key:
KG1 cells [1] = experiment: expression of differentiation antigens CD11b and CD14 after exposure to deltanoids; type: cell-based; settings: FIG. 4b
From the text: According to the invention, cells from the KG1 acute myeloid leukemia line were used as a model for cells resistant to differentiation mediated by deltanoids. […] Effect on clonal proliferation and differentiation of human myeloid cells. J Clin Invest, 1986. 78: p. […] J Steroid Biochem Mol Biol, 2012. 132(3-5): p. 220-6]. The HL60 acute myeloid leukemia cell line, used in laboratories engaged in studying deltanoid-mediated differentiation, served as a sensitive line model [Marcinkowska, E. et al., Cell differentiating and anti-proliferative activity of side-chain modified analogs of 1,25-dihydroxyvitamin D3. J Steroid Biochem Mol Biol, 1998. 67(1): p. 71-8; Gallagher, R. et al., Characterization of the continuous, differentiating myeloid cell line (HL-60) from a patient with acute promyelocytic leukemia. Blood, 1979. 54: p. 713-733; Brackman, D. et al., Expression of cell surface antigens during the differentiation of HL-60 cells induced by 1,25-dihydroxyvitamin D3, retinoic acid and DMSO. Leuk Res, 1995. 19: p. 57-64].
Studying susceptibility to differentiation mediated by deltanoids is done in a number of ways. One of these is observing the appearance of antigens typical for macrophages on the surface of deltanoid (calcitriol or analogs) treated cells, serving important functions for the macrophages. […]

KG1-CtrA cells [2] = experiment: as above; type: cell-based; settings: unpublished data
HL60 cells [3] = settings: exposure even to low concentrations; cited from earlier work
KG1 cells [4] = settings: exposure even to high concentrations; cited from earlier work
HL60 cells [5] = experiment: flow cytometry, direct labeling with FITC-labeled scFv; type: binding
Experimental: (§1) FITC-labeled 6B and 8F antibodies were used to label the HL60, KG1 and KG1-CtrA cells. To this end, 5×10^5 cells of each were suspended in 50 μl of PBS buffer without calcium and magnesium ions with 0.1% BSA. Either 1 μg of the 8F/FITC protein or 1 μg of the 6B/FITC protein were added to each suspension. Samples were incubated for 45 minutes in darkness on ice, then washed with PBS without calcium and magnesium ions, supplemented with 0.1% BSA and subsequently fluorescence of the samples was read by flow cytometry.

KG1 cells [6] = experiment: as above; type: binding
Experimental: as §1

HL60 cells [7] = experiment: flow cytometry, sandwich labeling with scFv and FITC-conjugated secondary antibody; type: binding; settings: HL60 + 6B + anti-c-myc-FITC, sandwich method
Experimental: (§2) As a confirmation of the ELISA assays, the flow cytometry analysis was conducted, wherein the cells were labeled with a FITC-conjugated antibody in an scFv format (direct labeling) or with an antibody in an scFv format and then with a FITC-conjugated secondary antibody recognizing the former (sandwich method).
(§3) Optimal dilution of the secondary antibody in the sandwich method is 1:100 or 1:50 (10^5 cells).

KG1 cells [8] = experiment: as above; type: binding; settings: KG1 + 6B + anti-c-myc-FITC, sandwich method
Experimental: as §2, §3

KG1 cells [9] = experiment: library screening with the ELISA method on whole cells; type: binding; settings: FIG. 1, background subtracted
From the text: The OD450-OD650 signal informs of the binding strength of the tested antibody to KG1 cells (more particularly: of the amount of the antibody bound to the antigen, being then recognized by a secondary HRP-conjugated antibody). Background signal, namely OD450-OD650 for the control with only the secondary antibody, was then subtracted from all measurements. The numbers and letters indicate the position on a 96-well plate.
(§4) Screening the library in order to find antibodies in an scFv format, specifically interacting with the KG1 line, was done based on ELISA according to the Tomlinson protocol (phages with envelope protein fused with scFv after expression on a 96-well plate served as the primary antibody for ELISA). Again, the cells were not immobilized on a Nunc U plate but only centrifuged in mild conditions. The identified positive clones were expressed in the form of solubilized scFv (without fusion with a phage envelope protein) and purified on a protein A resin, and then tested on KG1 cells and HL60 cells obtaining desired results (specificity against KG1 line) (FIG. 1).

HL60 cells [10] = experiment: ELISA on whole cells; type: binding
From the text: as §4
At the same time, it was observed that the HL60 cells spontaneously convert the substrate for HRP conjugated with the secondary antibody, giving results that need to be analyzed with caution. To this end, the reaction for HL60 was stopped sooner but the results required additional confirmation with a different method anyway.

KG1-CtrA cells [11] = experiment: flow cytometry, direct labeling with FITC-labeled scFv; type: binding; settings: 1 μg 6B/FITC, 5×10^5 KG1-CtrA cells, FIG. 5
Experimental: as §1

C=C1/C(=C\C=C2/CCC[C@]3(C)[C@@H]([C@H](C)CCCC(C)(C)O)CC[C@@H]23)C[C@@H](O)C[C@@H]1O [calcitriol]
differentiation after exposure (KG1 cells [1]): lack of differentiation
expression of differentiation antigens CD11 b and CD14 (KG1-CtrA cells [2]): significantly increase expression
expression of CD14 and CD11b antigens (HL60 cells [3]): significantly increase expression
CD11 b and CD14 expression (KG1 cells [4]): do not alter

B1: 8F: scFv of SEQ ID NO: 2, negative control, same framework as 6B, differing only in hypervariable fragments (protein)
scFv: EVQLLESGGGLVQPGGSLRLSCAASGFTFSSYGMSWVRQAPGKGLEWVSWIDASGTRTQYADSVKGRFTISRDNSKNTLYLQMNSLRAEDTAVYYCAKLFRSFDYWGQGTLVTVSSGGGGSGGGGSGGGGSTDIQMTQSPSSLSASVGDRVTITCRASQSISSYLNWYQQKPGKAPKLLIYRASSLQSGVPSRFSGSGSGTDFTLTISSLQPEDFATYYCQQGQTLPITFGQGTKVEIKRAAA
modifications: antibody 8F
recognition of deltanoid-sensitive leukemia cells (HL60 cells [5]): not recognizing
recognition of deltanoid-resistant leukemia cells (KG1 cells [6]): not recognizing

B2: 6B: scFv of SEQ ID NO: 1, which specifically recognizes KG1 cells line, obtained by phage display (protein)
scFv: EVQLLESGGGLVQPGGSLRLSCAASGFTFSSYGMSWVRQAPGKGLEWVSTIRTAGRATEYADSVKGRFTISRDNSKNTLYLQMNSLRAEDTAVYYCAKSPQTFDYWGQGTLVTVSSGGGGSGGGGSGGGGSTDIQMTQSPSSLSASVGDRVTITCRASQSISSYLNWYQQKPGKAPKLLIYRASRLQSGVPSRFSGSGSGTDFTLTISSLQPEDFATYYCQQRLTIPITFGQGTKVEIKRAAA
modifications: antibody 6B
FITC+: GeoMean (HL60 cells [7]): 9.8
FITC+: mean (HL60 cells [7]): 10.7
FITC+: median (HL60 cells [7]): 8.9
FITC+: % Vis (KG1 cells [8]): 100.0%
FITC+: GeoMean (KG1 cells [8]): 28.1
FITC+: mean (KG1 cells [8]): 29.4
FITC+: median (KG1 cells [8]): 28.4
OD450-OD650 signal (binding strength to KG1 cells) (KG1 cells [9]): clearly prominent
ELISA signal in comparison to control with non-specific scFv (HL60 cells [10]): no increased signal
presence of the 6B-binding antigen (KG1-CtrA cells [11]): lost
